Experimental data from doi:10.1101/2021.02.07.430181.

Key:
Assay in all cases: SAXS
[1] = target: TrK13-A578S (truncated and strep-tagged recombinant PfKelch13 with A578S) (P. falciparum 3D7)
[2] = target: TrK13-WT (truncated and strep-tagged recombinant PfKelch13, wild type) (P. falciparum 3D7)
[3] = target: TrK13-R539T (truncated and strep-tagged recombinant PfKelch13 with R539T) (P. falciparum 3D7)
[4] = target: TrK13-C580Y (truncated and strep-tagged recombinant PfKelch13 with C580Y) (P. falciparum 3D7)

“TrK13-A578S (truncated and strep-tagged recombinant PfKelch13 with A578S) (domain or fragment)” was tested. Which stoichiometry N [1] did it give?
Its stoichiometry N is 6.

Which stoichiometry N [2] does the source give for “TrK13-WT (truncated and strep-tagged recombinant PfKelch13, wild type) (domain or fragment)” here?
Its stoichiometry N is 6.

How did the stoichiometry N [3] turn out when “TrK13-R539T (truncated and strep-tagged recombinant PfKelch13 with R539T) (domain or fragment)” was run?
Its stoichiometry N is 6.

“TrK13-C580Y (truncated and strep-tagged recombinant PfKelch13 with C580Y) (domain or fragment)” was tested. Which stoichiometry N [4] did it give?
Its stoichiometry N is 6.
